Test results taken from patent US20210388110A1 (published 2021).
Where a chain is given by its changes, count along the chain named.

B1: TR01H040-E22Hh/none-Hi-Kn010G3/L0000-k0 (antibody, human IgG1, kappa, L234A L235A, N297A)
heavy: QVQLVESGGGLVQPGRSLRLSCAASGFTFSNAWMHWVRQAPGKGLEWVAQIKDKSQNYATYYAESVKGRFTISRADSKNSIYLQMNSLKTEDTAVYYCRYVHYSASYGVDAWGQGTTVTVSSASTKGPSVFPLAPSSKSTSGGTAALGCLVKDYFPEPVTVSWNSGALTSGVHTFPAVLQSSGLYSLSSVVTVPSSSLGTQTYICNVNHKPSNTKVDKKVEPKSCDKTHTCPPCPAPEAAGGPSVFLFPPKPKDTLMISRTPEVTCVVVDVSHEDPEVKFNWYVDGVEVHNAKTKPREEQYASTYRVVSVLTVLHQDWLNGKEYKCKVSNKALPAPIEKTISKAKGQPREPQVYTLPPSRCELTKNQVSLSCAVKGFYPSDIAVEWESNGQPENNYKTTPPVLDSDGSFFLVSKLTVDKSRWQQGNVFSCSVMHEALHNHYTQKSLSLSPDYKDDDDK
chain: EPKSSDKTHTCPPCPAPELLGGPSVFLFPPKPKDTLMISRTPEVTCVVVDVSHEDPEVKFNWYVDGVEVHNAKTKPREEQYNSTYRVVSVLTVLHQDWLNGKEYKCKVSNKALPAPIEKTISKAKGQPREPQVCTLPPSRDELTKNQVSLWCLVKGFYPSDIAVEWESNGQPENNYKTTPPVLDSDGSFFLYSKLTVDKSRWQQGNVFSCSVMHEALHNRYTQKSLSLSP
light: DIVMTQSPLSLPVTPGEPASISCRSSQSLVHSNRNTYLHWYQQKPGQAPRLLIYKVSNRFSGVPDRFSGSGSGTDFTLKISRVEAEDVGVYYCGQGTQVPYTFGQGTKLEIKRTVAAPSVFIFPPSDEQLKSGTASVVCLLNNFYPREAKVQWKVDNALQSGNSQESVTEQDSKDSTYSLSSTLTLSKADYEKHKVYACEVTHQGLSSPVTKSFNRGEC
notes: single-arm
B2: H0610-G1dh/none-Hi-Kn010G3/L0000vk1-k0 (antibody, human IgG1, kappa)
heavy: not shown
chain: B1 chain
light: DIQMTQSPSSLSASVGDRVTITCRSSQSLVHSNRNTYLHWYQQKPGKAPKLLIYKVSNRFSGVPSRFSGSGSGTDFTFTISSLQPEDIATYYCGQGTQVPYTFGQGTKVEIKRTVAAPSVFIFPPSDEQLKSGTASVVCLLNNFYPREAKVQWKVDNALQSGNSQESVTEQDSKDSTYSLSSTLTLSKADYEKHKVYACEVTHQGLSSPVTKSFNRGEC
notes: single-arm (one Fab)
B3: H0610-G1dh/none-Hi-Kn010G3/TR01L010-k0 (antibody, human IgG1, kappa)
heavy: not shown
chain: B1 chain
light: B1 light with S61R, L109V, K112E
notes: single-arm (one Fab)
B4: TR01H015-E22Hh/none-Hi-Kn010G3/TR01L001-k0 (antibody, human IgG1, kappa, L234A L235A, N297A)
heavy: B1 heavy with D53G, Q56N, A111I
chain: B1 chain
light: B1 light with R24Q, S25A, Q27E
notes: single-arm
B5: TR01H007-E22Hh/none-Hi-Kn010G3/L0000-k0 (antibody, human IgG1, kappa, L234A L235A, N297A)
heavy: B1 heavy with D53S, Q56N, S104G, S106Y, A111I
chain: B1 chain
light: B1 light
notes: single-arm
B6: H0610-G1dh/none-Hi-Kn010G3/TR01L016-k0 (antibody, human IgG1, kappa)
heavy: not shown
chain: B1 chain
light: B1 light with L29P, Q42L, A48S, R50Q, G94Y
notes: single-arm (one Fab)
B7: CE115HA121-E22Hh//-Hi-Kn010G3/L0000-k0 (antibody, human IgG1, kappa, L234A L235A, N297A)
heavy: B1 heavy with L11V, Q50L, D53A, Q56N, A75D, I81L, S104G, S106Y
chain: B1 chain
light: B1 light
notes: single-arm
B8: CE115HA251-E22Hh//-Hi-Kn010G3/L0000-k0 (antibody, human IgG1, kappa, L234A L235A, N297A)
heavy: B1 heavy with L11V, D53A, Q56N, A75D, I81L, S104Y, A105Y, S106Y
chain: B1 chain
light: B1 light
notes: single-arm
B9: TR01H012-E22Hh/none-Hi-Kn010G3/L0000-k0 (antibody, human IgG1, kappa, L234A L235A, N297A)
heavy: B1 heavy with D53A, Q56N, S104Y, A105Y, A111I
chain: B1 chain
light: B1 light
notes: single-arm
B10: H0610-G1dh/none-Hi-Kn010G3/TR01L017-k0 (antibody, human IgG1, kappa)
heavy: not shown
chain: B1 chain
light: B1 light with L29P, L38I, H39Q, Q42L, A48S, R50Q, G94Y
notes: single-arm (one Fab)
B11: CE115HA192-E22Hh//-Hi-Kn010G3/L0000-k0 (antibody, human IgG1, kappa, L234A L235A, N297A)
heavy: B1 heavy with L11V, D53A, Q56N, A75D, I81L, S104Y, S106Y
chain: B1 chain
light: B1 light
notes: single-arm
B12: TR01H013-E22Hh/none-Hi-Kn010G3/L0000-k0 (antibody, human IgG1, kappa, L234A L235A, N297A)
heavy: B1 heavy with D53G, S104G, S106Y, A111I
chain: B1 chain
light: B1 light
notes: single-arm
B13: TR01H014-E22Hh/none-Hi-Kn010G3/L0000-k0 (antibody, human IgG1, kappa, L234A L235A, N297A)
heavy: B1 heavy with D53G, Q56N, E64P, S104G, S106Y, A111I
chain: B1 chain
light: B1 light
notes: single-arm
B14: CE115HA252-E22Hh//-Hi-Kn010G3/L0000-k0 (antibody, human IgG1, kappa, L234A L235A, N297A)
heavy: B1 heavy with L11V, D53A, Q56N, A59K, T60K, A75D, I81L, S104Y, A105Y, S106Y
chain: B1 chain
light: B1 light
notes: single-arm
B15: TR01H003-E22Hh//-Hi-Kn010G3/L0000-k0 (antibody, human IgG1, kappa, L234A L235A, N297A)
heavy: B1 heavy with L11V, D53A, Q56N, A75D, I81L, Y100R, S104G, S106Y
chain: B1 chain
light: B1 light
notes: single-arm
B16: H0610-G1dh/none-Hi-Kn010G3/TR01L009-k0 (antibody, human IgG1, kappa)
heavy: not shown
chain: B1 chain
light: B1 light with Q42L, A48S, R50Q, S61R
notes: single-arm (one Fab)
B17: H0610-G1dh/none-Hi-Kn010G3/TR01L020-k0 (antibody, human IgG1, kappa)
heavy: not shown
chain: B1 chain
light: B1 light with R24Q, S25A, Q27E, L29P, L38I, H39Q, Q42L, A48S, R50Q, G94Y
notes: single-arm (one Fab)
B18: H0610-G1dh/none-Hi-Kn010G3/TR01L011-k0 (antibody, human IgG1, kappa)
heavy: not shown
chain: B1 chain
light: B1 light with R24Q, S25A, Q27E, S61R, L109V, K112E
notes: single-arm (one Fab)
B19: H0610-G1dh/none-Hi-Kn010G3/TR01L012-k0 (antibody, human IgG1, kappa)
heavy: not shown
chain: B1 chain
light: B1 light with Q42L, A48S, R50Q, S61R, L109V, K112E
notes: single-arm (one Fab)
B20: H0610-G1dh/none-Hi-Kn010G3/TR01L018-k0 (antibody, human IgG1, kappa)
heavy: not shown
chain: B1 chain
light: B1 light with R24Q, S25A, Q27E, L29P, Q42L, A48S, R50Q
notes: single-arm (one Fab)
B21: H0610-G1dh/none-Hi-Kn010G3/TR01L019-k0 (antibody, human IgG1, kappa)
heavy: not shown
chain: B1 chain
light: B1 light with R24Q, S25A, Q27E, L29P, Q42L, A48S, R50Q, G94Y
notes: single-arm (one Fab)
B22: TR01H006-E22Hh/none-Hi-Kn010G3/L0000-k0 (antibody, human IgG1, kappa, L234A L235A, N297A)
heavy: B1 heavy with D53A, S104G, S106Y, A111I
chain: B1 chain
light: B1 light
notes: single-arm
B23: H0610-G1dh/none-Hi-Kn010G3/TR01L015-k0 (antibody, human IgG1, kappa)
heavy: not shown
chain: B1 chain
light: B1 light with L29P, Q42L, A48S, R50Q
notes: single-arm (one Fab)
B24: TR01H015-E22Hh/none-Hi-Kn010G3/L0000-k0 (antibody, human IgG1, kappa, L234A L235A, N297A)
heavy: B1 heavy with D53G, Q56N, A111I
chain: B1 chain
light: B1 light
notes: single-arm

What was measured:
soluble human CD3ε chain = molecular target: T1, soluble human CD3ε chain (human, UniProt P07766 23-126, limits assumed); assay: SPR (Biacore)
T1 construct: the text says soluble human CD3ε chain; also called human CD3 epsilon chain

soluble human GPC3 = molecular target: T2, soluble human GPC3 (human, UniProt P51654 25-563, limits assumed); assay: SPR (Biacore), soluble human GPC3
T2 construct: soluble human GPC3 as analyte; also called glypican 3
T2 sequence (P51654 other isoform, or with tags, fused parts or gaps limits assumed, form in doubt): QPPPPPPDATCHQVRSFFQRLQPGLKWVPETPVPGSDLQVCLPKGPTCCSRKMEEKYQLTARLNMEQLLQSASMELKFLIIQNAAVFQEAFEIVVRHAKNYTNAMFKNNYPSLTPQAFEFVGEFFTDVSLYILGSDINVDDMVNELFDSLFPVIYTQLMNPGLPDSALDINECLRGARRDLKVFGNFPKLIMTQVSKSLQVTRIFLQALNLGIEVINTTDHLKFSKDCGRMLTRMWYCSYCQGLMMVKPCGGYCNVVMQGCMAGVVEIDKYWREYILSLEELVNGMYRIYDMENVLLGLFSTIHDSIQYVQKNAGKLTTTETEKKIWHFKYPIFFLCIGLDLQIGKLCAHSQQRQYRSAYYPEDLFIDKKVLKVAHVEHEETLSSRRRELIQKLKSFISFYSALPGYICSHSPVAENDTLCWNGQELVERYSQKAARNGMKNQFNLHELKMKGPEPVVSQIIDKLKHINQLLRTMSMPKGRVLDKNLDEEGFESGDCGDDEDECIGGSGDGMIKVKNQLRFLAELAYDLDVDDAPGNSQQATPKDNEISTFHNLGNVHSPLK

T1 sequence (P07766 23-126 limits assumed): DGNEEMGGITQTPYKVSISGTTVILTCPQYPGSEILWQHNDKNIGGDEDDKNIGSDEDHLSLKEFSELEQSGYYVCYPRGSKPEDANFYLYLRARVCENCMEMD

| Kd (soluble human CD3ε chain) [nM] | Kd (soluble human GPC3) [nM] | Binder |
| --- | --- | --- |
| 36 | – | B1 |
| – | 2.16 | B2 |
| – | 2.92 | B3 |
| 65.6 | – | B4 |
| 21.7 | – | B5 |
| – | 1.08 | B6 |
| 67.6 | – | B7 |
| 22.3 | – | B8 |
| 7.94 | – | B9 |
| – | 0.00827 | B10 |
| 50.5 | – | B11 |
| 49.4 | – | B12 |
| 38.7 | – | B13 |
| 9.48 | – | B14 |
| 40.3 | – | B15 |
| – | 3.81 | B16 |
| – | 0.0224 | B17 |
| – | 4.02 | B18 |
| – | 4.25 | B19 |
| – | 2.17 | B20 |
| – | 1.15 | B21 |
| 23 | – | B22 |
| – | 2.16 | B23 |
| 61.3 | – | B24 |
